Laboratory results taken from patent publication US7657380.
Substitutions are numbered along the chain they refer to.

T1: human CD30 (commercial, conjugated to digoxigenin) (human, UniProt P28908 19-379, limits assumed, conjugated to digoxigenin (DIG))
T1 sequence (looked up): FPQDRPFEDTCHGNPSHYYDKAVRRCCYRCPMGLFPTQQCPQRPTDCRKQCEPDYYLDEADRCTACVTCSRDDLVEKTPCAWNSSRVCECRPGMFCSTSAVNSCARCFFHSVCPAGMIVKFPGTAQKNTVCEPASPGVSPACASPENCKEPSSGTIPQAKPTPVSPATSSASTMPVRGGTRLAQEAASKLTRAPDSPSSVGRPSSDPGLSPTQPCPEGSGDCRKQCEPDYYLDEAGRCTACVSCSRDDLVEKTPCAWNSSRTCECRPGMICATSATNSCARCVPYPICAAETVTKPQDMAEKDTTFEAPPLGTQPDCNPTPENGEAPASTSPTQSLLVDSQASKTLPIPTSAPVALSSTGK

B1: AC10 H3.1/L3 (antibody, IgG1, name in Kabat numbering, V domains shown)
VH: EIQLVQSGPEVKKPGASVKVSCKASGYTFTDYYITWVRQAPGQGLEWMGWIYPGSGNTKYNEKFQGRFVFSVDTSASTAYLQISSLKAEDTAVYFCANYGNYWFAYWGQGTLVTVSS
VL: DIVLTQSPDSLAVSLGERATINCKASQSVDFDGDSYMNWYQQKPGQPPKVLIYAASNLESGIPARFSGSGSGTDFTLTINSLEAEDAATYYCQQSNEDPWTFGGGTKVEIK
B2: AC10 H3.2/L3 (antibody, IgG1, name in Kabat numbering, V domains shown)
VH: B1 VH with E1Q, I2L
VL: B1 VL
B3: AC10 H3.32/L3 (antibody, IgG1, name in Kabat numbering, V domains shown)
VH: B1 VH with E1Q, K59I
VL: B1 VL
B4: AC10 H3.21/L3 (antibody, IgG1, name in Kabat numbering, V domains shown)
VH: B1 VH with E1Q, G44R
VL: B1 VL
B5: AC10 H3.9/L3 (antibody, IgG1, name in Kabat numbering, V domains shown)
VH: B1 VH with E1Q, D31S
VL: B1 VL
B6: AC10 H3.45/L3 (antibody, IgG1, name in Kabat numbering, V domains shown)
VH: B1 VH with E1Q, T91M
VL: B1 VL
B7: AC10 H3.34/L3 (antibody, IgG1, name in Kabat numbering, V domains shown)
VH: B1 VH with E1Q, N61A
VL: B1 VL
B8: AC10 H3.27/L3 (antibody, IgG1, name in Kabat numbering, V domains shown)
VH: B1 VH with E1Q, P53A
VL: B1 VL
B9: AC10 H3.33/L3 (antibody, IgG1, name in Kabat numbering, V domains shown)
VH: B1 VH with E1Q, K59N
VL: B1 VL
B10: AC10 H3.16/L3 (antibody, IgG1, name in Kabat numbering, V domains shown)
VH: B1 VH with E1Q, T35G
VL: B1 VL
B11: AC10 H3.6/L3 (antibody, IgG1, name in Kabat numbering, V domains shown)
VH: B1 VH with E1Q, A16T
VL: B1 VL
B12: AC10 H3.8/L3 (antibody, IgG1, name in Kabat numbering, V domains shown)
VH: B1 VH with E1Q, D31G
VL: B1 VL
B13: AC10 H3.4/L3 (antibody, IgG1, name in Kabat numbering, V domains shown)
VH: B1 VH with E1Q, I2V
VL: B1 VL
B14: AC10 H3.12/L3 (antibody, IgG1, name in Kabat numbering, V domains shown)
VH: B1 VH with E1Q, Y33W
VL: B1 VL
B15: AC10 H3.13/L3 (antibody, IgG1, name in Kabat numbering, V domains shown)
VH: B1 VH with E1Q, I34L
VL: B1 VL
B16: AC10 H3.7/L3 (antibody, IgG1, name in Kabat numbering, V domains shown)
VH: B1 VH with E1Q, A24V
VL: B1 VL
B17: AC10 H3.18/L3 (antibody, IgG1, name in Kabat numbering, V domains shown)
VH: B1 VH with E1Q, T35N
VL: B1 VL
B18: AC10 H3.44/L3 (antibody, IgG1, name in Kabat numbering, V domains shown)
VH: B1 VH with E1Q, V72R
VL: B1 VL
B19: AC10 H3.20/L3 (antibody, IgG1, name in Kabat numbering, V domains shown)
VH: B1 VH with E1Q, G44A
VL: B1 VL
B20: AC10 H3.37/L3 (antibody, IgG1, name in Kabat numbering, V domains shown)
VH: B1 VH with E1Q, N61T
VL: B1 VL
B21: AC10 H3.48/L3 (antibody, IgG1, name in Kabat numbering, V domains shown)
VH: B1 VH with E1Q, F95Y
VL: B1 VL
B22: AC10 H3.11/L3 (antibody, IgG1, name in Kabat numbering, V domains shown)
VH: B1 VH with E1Q, Y33G
VL: B1 VL
B23: AC10 H3.19/L3 (antibody, IgG1, name in Kabat numbering, V domains shown)
VH: B1 VH with E1Q, T35S
VL: B1 VL
B24: AC10 H3.40/L3 (antibody, IgG1, name in Kabat numbering, V domains shown)
VH: B1 VH with E1Q, E62Q
VL: B1 VL
B25: AC10 H3.28/L3 (antibody, IgG1, name in Kabat numbering, V domains shown)
VH: B1 VH with E1Q, P53V
VL: B1 VL
B26: AC10 H3.39/L3 (antibody, IgG1, name in Kabat numbering, V domains shown)
VH: B1 VH with E1Q, N61D
VL: B1 VL
B27: AC10 H3.3/L3 (antibody, IgG1, name in Kabat numbering, V domains shown)
VH: B1 VH with E1Q, I2M
VL: B1 VL
B28: AC10 H3.29/L3 (antibody, IgG1, name in Kabat numbering, V domains shown)
VH: B1 VH with E1Q, S55D
VL: B1 VL
B29: AC10 H3.14/L3 (antibody, IgG1, name in Kabat numbering, V domains shown)
VH: B1 VH with E1Q, I34M
VL: B1 VL
B30: AC10 H3.38/L3 (antibody, IgG1, name in Kabat numbering, V domains shown)
VH: B1 VH with E1Q, N61V
VL: B1 VL
B31: AC10 H3.36/L3 (antibody, IgG1, name in Kabat numbering, V domains shown)
VH: B1 VH with E1Q, N61S
VL: B1 VL
B32: AC10 H3.41/L3 (antibody, IgG1, name in Kabat numbering, V domains shown)
VH: B1 VH with E1Q, Q65T
VL: B1 VL
B33: AC10 H3.42/L3 (antibody, IgG1, name in Kabat numbering, V domains shown)
VH: B1 VH with E1Q, V72L
VL: B1 VL
B34: AC10 H3.46/L3 (antibody, IgG1, name in Kabat numbering, V domains shown)
VH: B1 VH with E1Q, V93M
VL: B1 VL
B35: AC10 H3.22/L3 (antibody, IgG1, name in Kabat numbering, V domains shown)
VH: B1 VH with E1Q, W50I
VL: B1 VL
B36: AC10 H3.17/L3 (antibody, IgG1, name in Kabat numbering, V domains shown)
VH: B1 VH with E1Q, T35H
VL: B1 VL
B37: AC10 H3.23/L3 (antibody, IgG1, name in Kabat numbering, V domains shown)
VH: B1 VH with E1Q, W50R
VL: B1 VL
B38: AC10 H3.5/L3 (antibody, IgG1, name in Kabat numbering, V domains shown)
VH: B1 VH with E1Q, P9A
VL: B1 VL
B39: AC10 H3.30/L3 (antibody, IgG1, name in Kabat numbering, V domains shown)
VH: B1 VH with E1Q, S55N
VL: B1 VL
B40: AC10 H3.49/L3 (antibody, IgG1, name in Kabat numbering, V domains shown)
VH: B1 VH with E1Q, A97T
VL: B1 VL
B41: AC10 H3.24/L3 (antibody, IgG1, name in Kabat numbering, V domains shown)
VH: B1 VH with E1Q, Y52N
VL: B1 VL
B42: AC10 H3.43/L3 (antibody, IgG1, name in Kabat numbering, V domains shown)
VH: B1 VH with E1Q, V72M
VL: B1 VL

Target: T1, human CD30 (commercial, conjugated to …)
Test: AlphaScreen competition

Row | Binder | Fold IC50 vs H3/L3
1 | B1 | 1 fold
2 | B2 | 2.76 fold
3 | B3 | 1.09 fold
4 | B4 | 2.6 fold
5 | B5 | 1.65 fold
6 | B6 | 1.14 fold
7 | B7 | 1.3 fold
8 | B8 | 2 fold
9 | B9 | 0.5 fold
10 | B10 | 0.15 fold
11 | B11 | 1.13 fold
12 | B12 | 1.4 fold
13 | B13 | 1.28 fold
14 | B14 | 0 fold
15 | B15 | 1.52 fold
16 | B16 | 4.45 fold
17 | B17 | 0.13 fold
18 | B18 | 1.76 fold
19 | B19 | 2.04 fold
20 | B20 | 1.01 fold
21 | B21 | 1.6 fold

Row | Binder | Fold IC50 vs H3/L3
22 | B22 | 0.73 fold
23 | B23 | 1.11 fold
24 | B24 | 1.83 fold
25 | B25 | 1.34 fold
26 | B26 | 1 fold
27 | B27 | 0.68 fold
28 | B28 | 1.81 fold
29 | B29 | 1.62 fold
30 | B30 | 1.14 fold
31 | B31 | 1.24 fold
32 | B32 | 1.38 fold
33 | B33 | 0.66 fold
34 | B34 | 1.39 fold
35 | B35 | 0.01 fold
36 | B36 | 0.04 fold
37 | B37 | 0.16 fold
38 | B38 | 1.29 fold
39 | B39 | 1.45 fold
40 | B40 | 0.38 fold
41 | B41 | 0.03 fold
42 | B42 | 0.88 fold
